Key:
[1] = target: N67A mutant ZIKV capsid (C) protein as N-terminal MBP fusion (MBP-C_(N67A)) (Zika virus MR766); experiment: cross-linking; glutaraldehyde 0, 0.25, 0.5 and 1.0 mM; MBP-C protein 0.16 mg/ml in PBS, 50 uL, room temperature, 20 min, stopped with 50 mM Tris pH 8; SDS-PAGE, Coomassie blue
[2] = target: Wild-type ZIKV capsid (C) protein as N-terminal MBP fusion (MBP-CWT) (Zika virus MR766); experiment: as above

Substance | stoichiometry N [1] | stoichiometry N [2]
N67A mutant ZIKV capsid (C) protein as N-terminal MBP fusion (MBP-C_(N67A)) (natural protein) | 2 | 
Wild-type ZIKV capsid (C) protein as N-terminal MBP fusion (MBP-CWT) (natural protein) |  | 2
